Where a chain is given by its changes, count along the chain named. Names may count otherwise.
B1: flagellin mutant (N153W) of V. vulnificus flagellin FlaB (ligand)
chain: MAVNVNTNVAAMTAQRYLNNANSAQQTSMERLSSGFKINSAKDDAAGLQISNRLNVQSRGLDVAVRNANDGISIAQTAEGAMNETTNILQRMRDLSLQSANGSNSKSERVAIQEEVTALNDELNRIAETTSFGGNKLLNGTYGTKAMQIGADWGEAVMLSLKDMRSDNVMMGGVSYQAEEGKDKNWNVAAGDNDLTIALTDSFGNEQEIEINAKAGDDIEELATYINGQTDLVKASVGEGGKLQIFAGNNKVQGEIAFSGSLAGELGLGEGKNVTVDTIDVTTVQGAQESVAIVDAALKYVDSHRAELGAFQNRFNHAISNLDNINENVNASKSRIKDTDFAKETTQLTKTQILSQASSSILAQAKQAPNSALSLLG
notes: Recombinant, from pTYB12 intein fusion in E. coli ER2566
B2: flagellin mutant (N135D) of V. vulnificus flagellin FlaB (ligand)
chain: B1 chain with N135D, W153N
notes: as for B1
B3: flagellin mutant (A151W) of V. vulnificus flagellin FlaB (ligand)
chain: B1 chain with A151W, W153N
notes: as for B1
B4: flagellin mutant (R93A) of V. vulnificus flagellin FlaB (ligand)
chain: B1 chain with R93A, W153N
notes: as for B1
B5: flagellin mutant (S103W) of V. vulnificus flagellin FlaB (ligand)
chain: B1 chain with S103W, W153N
notes: as for B1
B6: flagellin mutant (V291W) of V. vulnificus flagellin FlaB (ligand)
chain: B1 chain with W153N, V291W
notes: as for B1
B7: flagellin mutant (D70A) of V. vulnificus flagellin FlaB (ligand)
chain: B1 chain with D70A, W153N
notes: Recombinant, expressed in E. coli ER2566 from pTYB12 as intein fusion, released with DTT
B8: flagellin mutant (N101A) of V. vulnificus flagellin FlaB (ligand)
chain: B1 chain with N101A, W153N
notes: as for B1
B9: flagellin mutant (D70A/N135D) of V. vulnificus flagellin FlaB (ligand)
chain: B1 chain with D70A, N135D, W153N
notes: Recombinant, from pTYB12 intein fusion in E. coli ER2566; also called dual site-directed mutant flagellin
B10: flagellin mutant (E108A) of V. vulnificus flagellin FlaB (ligand)
chain: B1 chain with E108A, W153N
notes: as for B1
B11: flagellin mutant (L97W) of V. vulnificus flagellin FlaB (ligand)
chain: B1 chain with L97W, W153N
notes: as for B1

Tests used:
[1] = target: the molecule itself; assay: native-gel electrophoresis, self-association in aqueous solution
[2] = target: toll-like receptor-5 (hTLR5) expressed in 293T cells from p3xFlag-hTLR5 plasmid (human (printed only as hTLR5), UniProt O60602 21-858); assay: cell-based or functional assay
toll-like receptor-5 (hTLR5) expressed in 293T cells from p3xFlag-hTLR5 plasmid, sequence (O60602 21-858): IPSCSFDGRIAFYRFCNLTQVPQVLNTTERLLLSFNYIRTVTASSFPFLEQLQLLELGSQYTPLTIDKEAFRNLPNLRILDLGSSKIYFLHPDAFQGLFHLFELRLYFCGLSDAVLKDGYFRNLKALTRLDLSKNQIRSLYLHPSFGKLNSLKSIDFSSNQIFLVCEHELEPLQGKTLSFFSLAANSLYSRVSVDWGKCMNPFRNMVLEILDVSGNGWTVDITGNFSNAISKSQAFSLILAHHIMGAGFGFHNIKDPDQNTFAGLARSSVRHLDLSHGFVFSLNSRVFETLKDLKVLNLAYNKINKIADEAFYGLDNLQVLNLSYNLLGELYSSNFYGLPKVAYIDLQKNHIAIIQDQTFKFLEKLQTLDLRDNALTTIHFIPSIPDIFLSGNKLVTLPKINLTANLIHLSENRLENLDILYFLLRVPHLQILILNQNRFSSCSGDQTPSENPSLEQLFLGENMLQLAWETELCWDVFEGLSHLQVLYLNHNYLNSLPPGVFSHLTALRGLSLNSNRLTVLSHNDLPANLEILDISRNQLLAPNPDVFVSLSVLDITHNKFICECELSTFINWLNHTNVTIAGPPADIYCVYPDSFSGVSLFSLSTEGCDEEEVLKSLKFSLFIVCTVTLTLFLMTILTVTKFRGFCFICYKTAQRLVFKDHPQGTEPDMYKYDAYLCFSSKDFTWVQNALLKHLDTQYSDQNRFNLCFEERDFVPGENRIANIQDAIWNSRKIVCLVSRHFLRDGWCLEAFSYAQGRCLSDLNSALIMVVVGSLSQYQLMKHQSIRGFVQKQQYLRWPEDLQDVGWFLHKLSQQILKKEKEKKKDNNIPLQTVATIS

Row | Binder | binding result [1] | increase in TLR5-mediated NF-κB transcription activity (luciferase reporter, 293T cells, 20 ng/ml) compared to PBS control [2]
1 | B1 | binds | ~24.5 fold
2 | B2 | binds | ~21.7 fold
3 | B3 | binds | ~22.5 fold
4 | B4 | binds | ~14 fold
5 | B5 | binds | ~23.7 fold
6 | B6 | binds | ~16.6 fold
7 | B7 | binds | ~24.6 fold
8 | B8 | binds | ~22.6 fold
9 | B9 | binds | ~14.9 fold
10 | B10 | binds | ~21 fold
11 | B11 | binds | ~25 fold

Reference: patent US20120201854A1 (INDUSTRY FOUNDATION OF CHONNAM NATIONAL UNIVERSITY, published 2012)
